# How the values were obtained:
# 5XFAD mice [1] = test: Active immunisation, 18F-Florbetaben-PET/MRI amyloid-plaque imaging in 5XFAD mice; assay type: in vivo, mouse; details: immunized 5XFAD mice, cortex, hippocampus and amygdala
# Procedure: 5XFAD mice were immunized at 6 weeks of age for 12 weeks with antigen [Thioacetal bridged amyloid-beta peptide 1-14—KLH conjugate; DAC*[…]*HH[Cys]-amide (*S—CH—S bridged, cyclised via positions 3 and 12)] emulsified in complete Freund's adjuvant (CFA), followed by booster doses of protein emulsified in incomplete Freund's adjuvant (IFA). Mice were acclimated at our facility for at least 7 days before immunization. Mice were injected with antigen emulsified in CFA subcutaneously at two sites on the back, injecting 0.05 to 0.1 mL at each site (total of 0.1 to 0.2 mL per mouse).
# Booster injections of antigen emulsified in IFA was administered at day 14, day 28, day 42 and 10 weeks after immunization with antigen/CFA emulsion. The booster is given as a single subcutaneous injection with 0.1 mL of IFA emulsion, at one site on the back. […]
# All images were analyzed using PMOD v3.9 (PMOD Technologies, Switzerland) as described before (Bouter et al). […] PET VOI statistics (kBq/cc) were generated for all brain areas and standardized uptake values (SUVs) were calculated [SUV=tissue activity concentration average (kBq/cc)×body weight (g)/injected dose (kBq)] for semi-quantitative analysis. SUVs of 18F-FDG-PET scans were corrected for measured blood glucose levels [SUVGIc=SUV x blood glucose level (mg/dl)]. […]
# 5XFAD mice [2] = test: Active immunisation, plaque load by immunohistochemistry in 5XFAD brain sections; assay type: in vivo; details: 5XFAD mouse cortex, FIG. 29
# Procedure: 5XFAD mice were immunized with antigen [Thioacetal bridged amyloid-beta peptide 1-14—KLH conjugate; DAC*[…]*HH[Cys]-amide (*S—CH—S bridged, cyclised via positions 3 and 12)] as described previously.
# Mice were sacrificed via CO2 anesthetization followed by cervical dislocation. Brain samples were carefully dissected and post-fixed in 4% phosphate-buffered formalin at 4° C. Human and mouse tissue samples were processed as previously described 4. In brief, 4 μm paraffin sections were deparaffinized in xylene, followed by rehydration in a series of ethanol. […] Non-specific binding sites were blocked by treatment with skim milk and fetal calf serum in PBS, prior to the addition of the primary antibodies. The following antibodies were used: polyclonal antibody 24311 against […], monoclonal antibody 1-57 against pyroglumatate Aβ3-X, (Synaptic Sytems, GOttingen, Germany; 1 mg/ml; 1:500), and TAP01_4 (1:200; 2 mg/ml). Corresponding biotinylated secondary anti-human and anti-mouse antibodies (1:200) were purchased from DAKO (Glostrup, Denmark). Staining was visualized using the ABC method, with a Vectastain kit (Vector Laboratories, Burlingame, USA) and diaminobenzidine (DAB) as chromogen. Counterstaining was carried out with hematoxylin.
# Plaque load was quantified as previously described (G. Antonios et al., Alzheimer therapy with an antibody against N-terminal Abeta 4-X and pyroglutamate Abeta 3-X. Scientific reports 5, 17338 (2015)). 5-6 paraffin embedded sections, which were at least 80 μm afar from each other, were stained simultaneously with DAB as chromogen. For Thioflavin S fluorescent staining tissue sections were deparaffinized and rehydrated, washed twice in deionized water and then treated with 1% (w/v) ThioflavinS in aqueous solution and counterstained in a 1% (w/v) aqueous solution of 4′6-diamidin-2-phenylindol. The relative Aβ load was evaluated using an Olympus BX-51 microscope equipped with an Olympus DP-50 camera and the ImageJ software (NIH, USA). Representative pictures of 100× magnification were systematically captured. […]
substance,measurement,setting,value
"DAC*FRHDSGYEC*HH[Cys]-amide (*S—CH—S bridged, cyclised via positions 3 and 12)",amyloid-plaque signal (fluorbetaben retention),5XFAD mice [1],drastically reduced
same,"amyloid-plaque load in brain tissue (pan-Abeta, pyroglutamate Aβ3-X, Thioflavin S, N-truncated Aβ stainings)",5XFAD mice [2]; listed as 3-12 linked Aβ1-14 cyclic peptide,reduction in amyloid-plaque load
same,"amyloid-plaque load in brain tissue (pan-Abeta, pyroglutamate Aβ3-X, Thioflavin S, N-truncated Aβ stainings)",5XFAD mice [2]; listed as cyclised Aβ peptides,strong reduction of plaques
same,"amyloid-plaque load in brain tissue (pan-Abeta, pyroglutamate Aβ3-X, Thioflavin S, N-truncated Aβ stainings)",5XFAD mice [2]; listed as cyclized Aβ peptide,significant reduction in plaque load

# Source: patent publication US20230151069A1, “Cyclic Peptides” (LIFEARC, priority 2020, published 2023)
